The DeepSol protein solubility set

Assay: soluble on expression in E. coli; label from the status in PepcDB or PDB records
With “MERAHRIDLKLLRYFLAVAEELHFGRAAARLNMSQPPLSIHIKELEQQLGTLLFIRHSRSVALTHAGKVLMEESRRLLASANQALARVEQIGRGEAGRIELGVVGTALWGRMRPAMRHFLKANPNVEVLFREKSPGMQMALLERRELDAGIWRMAIEPAVGFTSIRLHESAFMVAVPEDHDLASRDSVPLAALRNEYFVTLPSVHSDWGFLQRVCQQAGFSPMIIREVVEPQTVLAMISMGIGITLMADGYAQMSWPGVVFRPLEERIPADLYIVYDQQQATPALEKLVAALTV” the “soluble on expression in E. coli” value was “not soluble”.
For “FKYIQKIAKTEIKREEVPDVKDIISAKKIKIISGIKEVLESGKYADCEKMASDLLEDADPQEVLSAVLKYALKDELS”, the “soluble on expression in E. coli” value was “not soluble”.
For “MQENPTVWLFDLDNTLHDADAGIFHLINRAMTRYMARRLKLSESAASDLRQDYWHRYGATLAGLQIHHPEIDIAEFLRESHPIDAILTRLHGMADTENTLCRLNGRKAVFSNGPSFYVRAVAGALGLENCFDALFGTDDFGLLYKPNPQAYLNVCRLLDVPPECCIMVDDSADNLHQAKALGMKTVRFGAKSHAPPFIDASVSDMAQLARYAETLSERRQNHYNTRTPRKYERMLCVKPSLS”, the “soluble on expression in E. coli” value was “not soluble”.
In the case of “ATTPSANQNWRLLRDESAQLRIADVLQRKEQFRPLAKRSFIFPASPQAVWLQVQLPAQKVPSWLWIFAPRVQYLDYYLVQDGQLVRDQHTGESRPFQERPLPSRSYLFSLPVDGKPMTLYVRMTSNHPLMAWFDQIDEAGLVGLE”, the “soluble on expression in E. coli” value is reported as “soluble”.
For “SLTDRLERKLAIAANQDKADLLIKNGQIVDVFQLETFEGDVVIADGEIVAISDPGTYEAHEEVDAKGAFIAPAFIDGHVHIESSMVAPEQFAKVVVPHGVTTVIADPHEIANVAGVQGVEYMLDASEGIPLDVKMMVPSCVPATPFEHSGARLTAEEVAELFRDPRIFGLGEVMDYPAVLTRDQEMMAKLKAAHSEGRIVDGHGAGLDSVALNAYTAAGIGNDHEAVTPEEAKARLQRGMYLLIREGTAAKDFDALMKAITPMNSRRALFVTDDKHLDELVEEGSIDHHVRKAIQIGVNPLQAIQMASLNAAECFKLAKKGAIAPGFTADLLFIEDLQSLAITHVFKNGTCVAKNGKLIVPIRETVQPPQRLLESVNMKLVTKEQLELSLQSDEEAHLIQIQPGSIVTKHIREKVAVKDGVFIPSVARDQLKLVVAERHHKRGTVGVGIVKGFGLTKGAIATTVAHDSHNIVAVGTNDEDLLAAIKELENIQGGMTIVKDGKVLVSLPLTIGGLMSDQSYDVVCEQIKSVDAAIGALGFVGDFNPFLTLSFLALPVIPEIKLTDQGLFDVTSFSFIDQQVYAEETN”, the “soluble on expression in E. coli” value was “soluble”.
With “MSASRQRPGNHLLPTLFDRLCDDAPNQKRDHGISVSPVQIKEIIRRDLSFLLNTVSHEDDIDAARYPYAAASVLNYGLPPLAGSFLYEHKWDDIRRAILRTITRFEPRLKASTLQIIPLQDERRQSGHNTLQFEIRGEILTQPYPTAFRVRSALDMEQSRITFF” the “soluble on expression in E. coli” value was “not soluble”.
For “MKLIITSGGTTEPIDAVRGITNHSTGQLGKLITERFLQYHHDVTLVTTKTATKPLPNKRLRIIEVETVNDLMAALKDQVPHHDILIHSMAVSDYTPVYMTDLEQVSQADNLNCFLCEHNSEPKISSASDYQVLFLKKTPKVISYVKQWNPNIKLVGFKLLVNVPQEELIKVARASLAKNHADYILANDLVDIQTGMHKALLISNNEVASADTKEAIADLLYERMTKHD”, the “soluble on expression in E. coli” value was “not soluble”.
In the case of “MAHHHHHHSLSGPRVERLEVSAYTVPTDYPESDGTLQWDSTTMILVEAHGGGRKGLGYTYGDVSVGRFVESKLAGVAEGSDALSPPAVWARMQAAIRNAGRPGVGAMAVSAVDIALWDLKARLLGLPLADALPRFHAEVPVYGSGGFTSYPLRRLQEQLGGWAAAGIPRVKMKVGREPEKDPERVRAAREAIGESVELMVDANGAYTRKQALYWAGAFAREAGISYLEEPVSSEDREGLRLLRDRGPGGVAIAAGEYEWTLPQLHDLAGCVDILQADVTRCGGITGLLRVDGICRGHQIPFSAHCAPAVSAHACCAVESLLHLEYFHDHARVERLLFDGTLDPEGGSLRPDPDRPGLGLELKRSEAGKYAA”, the “soluble on expression in E. coli” value is reported as “soluble”.
With “MPERYTGSDGKTYLFKGWYKGNAKPSTLETTKTPSYAVTYDDNDDLHVVYEEAVMKTYTLPAREALFGYVDEQGNLINPAKFKLSATMGESDGATGEMTTFPTIDGIDMPASQLKKLAIPQKVYTRPDDGTIVTYGPQEVSVEIPKYYQTISISPTTAYTGDKTKYPVPNEVRRGIENPDNIVSSLVGTTAYNLTQKSATRYTARRSYWTWGPTKTLYSMSIYSGTAGGNYNLSTPDGTIYYYLENRRVTEHFVDESGAKITPPTGFTQGNQLVVDSENYVYTVAKALPKIYQAGEKTYIFQGWFKGKTKPATLKTTTTPSFTPTFNDEDDMTAVYQEAIPTAELTLTGAVDIIENGATMDYWEALLKNTGEAPLTTIKIKPTATWAAGIGAPNTIFVQGTGQNTKAFPVTKEQWTTGAGVSITLDQPLPAGGQLKMNLLGTAVTGNPGQVLTADVEVTGNFGSLTAKDTVRIKDLDQEITSPDGDGFISTPTFDFGKLAISGSKQQYGLKKAADYYGNGTRNPYLRLNTSQANWSLTAQLSQPKSATDSLPTTTRLLLGTAAAASFTDYNQPTETRTPLGKTSTVTLTADNTATAVVANQQFTGSDVYQLDFTFANIKLEVPANQGMAGQQYQAAVTWNLVTGP” the “soluble on expression in E. coli” value was “not soluble”.
For “MSMLKPSGLKAPTKILKPGSTALKTPTAVVAPVEKTISSEKASSTPSSETQEEFVDDFRVGERVWVNGNKPGFIQFLGETQFAPGQWAGIVLDEPIGKNDGSVAGVRYFQCEPLKGIFTRPSKLTRKVQAEDEANGLQTTPASRATSPLCTSTASMVSSSPSTPSNIPQKPSQPAAKEPSATPPISNLTKTASESISNLSEAGSIKKGERELKIGDRVLVGGTKAGVVRFLGETDFAKGEWCGVELDEPLGKNDGAVAGTRYFQCQPKYGLFAPVHKVTKIGFPSTTPAKAKANAVRRVMATTSASLKRSPSASSLSSMSSVASSVSSRPSRTGLLTETSSRYARKISGTTALQEALKEKQQHIEQLLAERDLERAEVAKATSHVGEIEQELALARDGHDQHVLELEAKMDQLRTMVEAADREKVELLNQLEEEKRKVEDLQFRVEEESITKGDLETQTKLEHARIKELEQSLLFEKTKADKLQRELEDTRVATVSEKSRIMELEKDLALRVQEVAELRRRLESNKPAGDVDMSLSLLQEISSLQEKLEVTRTDHQREITSLKEHFGAREETHQKEIKALYTATEKLSKENESLKSKLEHANKENSDVIALWKSKLETAIASHQQAMEELKVSFSKGLGTETAEFAELKTQIEKMRLDYQHEIENLQNQQDSERAAHAKEMEALRAKLMKVIKEKENSLEAIRSKLDKAEDQHLVEMEDTLNKLQEAEIKKEKFAEASEEAVSVQRSMQETVNKLHQKEEQFNMLSSDLEKLRENLADMEAKFREKDEREEQLIKAKEKLENDIAEIMKMSGDNSSQLTKMNDELRLKERDVEELQLKLTKANENASFLQKSIEDMTVKAEQSQQEAAKKHEEEKKELERKLSDLEKKMETSHNQCQELKARYERATSETKTKHEEILQNLQKTLLDTEDKLKGAREENSGLLQELEELRKQAEKAKAAQTAEDAMQIMEQMTKEKTETLASLEDTKQTNAKLQNELDTLKENNLKNVEELNKSKELLTVENQKMEEFRKEIETLKQAAAQKSQQLSALQEENVKLAEELGRSRDEVTSHQKLEEERSVLNNQLLEMKKRESKFIKDADEEKASLQKSISITSALLTEKDAELEKLRNEVTVLRGENASAKSLHSVVQTLESDKVKLELKVKNLELQLKENKRQLSSSSGNTDTQADEDERAQESQQMIDFLNSVIVDLQRKNQDLKMKVEMMSEAALNGNGDDLNNYDSDDQEKQSKKKPRLFCDICDCFDLHDTEDCPTQAQMSEDPPHSTHHGSRGEERPYCEICEMFGHWATNCNDDETF”, the “soluble on expression in E. coli” value was “soluble”.
For “MIIKKIIDLTMPITAQTPVYPGDPKPKIEPAATFAQDGYHVSRLVLGSHSGTHVDAPFHFCEHGWRLDDVPLTYFLGRGVVIDATGKAEGEAVTMADAAPYIPKLSPGTIVLFHTGWSQYAGTKRYFRHPYVAPDVIEAMLERGVRTFLIDALNIDPPDGSLFHAHELILGANGVIGENFVNFERIDFDDPYIIALPLSLPGCERFARSGGGGAVGVTKKGDTAPHML”, the “soluble on expression in E. coli” value was “not soluble”.
In the case of “GPGSMHFPSIVFRRHGGRQWMQQQSRDPFVLEARRRGYVARSAFKLLEMDDKFTLFSRGNTRVVVDIGCSPGSWLQVIRERCGDKCAVFGVDVLRVASTVTGAVCIQGDFTNPAVREELLARMVTVRAAGVVDVVTSDMCLNRGTGSTSDRQKQEELNRSALAFALEQLVPGGNFVCKVLGSPTAYEELRRDTCRWFVRTDICKPSSSRLTSDEAFMVCRGKREIPRDRSGGCDGTYGGRFGLDDWPGQLRGSPRRRKP”, the “soluble on expression in E. coli” value is reported as “not soluble”.
In the case of “MAGLIPQSFIDDLLNRTDIVEVVSSRIQLKKTGKNYSACCPFHKEKTPSFTVSPDKQFYYCFGCGAGGNALGFVMDHDQLEFPQAVEELAKRAGMDVPREERGGRGHTPRQPTDSPLYPLLSAAAEFYKQALKSHPARKAAVNYLKGRGLTGEIARDFGLGFAPPGWDNLLKHLGGDNLQLKAMLDAGLLVENSDTGKRYDRFRDRVMFPIRDSRGRIIAFGGRVLGDDKPKYLNSPETPVFHKGQELYGLYEARQKNRDLDEIMVVEGYMDVIALAQQGIRNAVATLGTATSEEHIKRLFRLVPSILFCFDGDQAGRKAAWRALESVLPNLQDGKRVRFLFLPEGEDPDSLVRAEGEDAFRARITQQAQPLAEYFFQQLMLEADPATLEGKAHLATLAAPLLEKIPGNNLRLLMRQRLSEITGLSGENIGQLAHHSPPPSSMDHGASGVLDGDDYFAASAYYENEPSHAPFDAAPGYVEAQPRKSWNKDKKPWDGKKWDGKKKWDKGGRGDFKAPQRTPVSVESTTLNALRTLLHHPQLALKVDDAGTLAREQDTYAQLLVSLLEALQKNPRQSSMQLIARWHGTPQGRLLQALGEKEWLIVQENLEKQFFDTITKLSESQRFGEREERLRSVMQKSYSELTDEEKALLREHYSVAASSP”, the “soluble on expression in E. coli” value is reported as “not soluble”.
For “MSSILIIGAGPTGLGAAHRLRGLGLENWHLFESTEQIGGLSASFVDDHGFTWDVGGHVLFSHYDYFDRVVEEALDGAWYEHQRECWVRIRETWVPYPFQNNIRHLPPDALEECLAGLKGLAGSPSLAANFREWMDRVFGAGIVKHFMEPYNRKVWGVPLHEMSREWIGERVSVIDLARIEKNIAEKTDDVNWGPNNTFKFPHKGGTGAIFSSIATRFQDRISFSHELTEVNLAARELGFSNGRRERYDSLITTIPLDIFIGLCRDVPESVREAASRLVHNSGLIVGIGVEGERRDSKCWMYFPEDNCPFYRVTNFHNYSPWNVPNGDTSRFFSLMCETTSSPHKPVNRAEIVETTIQGLINAGMLTESERERIISRYVIDIPYSYPVPTVGRDEALAVINPFLESQGVYSRGRFGAWKYEVGNMDHSFMQGVEVADRILNGADEPTVTGKGGDRLEHHHHHH”, the “soluble on expression in E. coli” value was “not soluble”.
With “MKLERQKLLAKVAYLYYMEGKSQSEIANELGIYRTTISRMLAKAREEGLVRIEISDFNPEIFQLESYFKSKYHLKDIEIVSSRKDSDTSEIEKDLAHVAAAMIRKKIKENDKVGIAWGRTLSKVVEAMRPHPVSQVSFVPLAGGPSHINARYHVNTLVYEMSRRFQGSCTFINATLVQENANLAKGILTSKYFEGLMDNWEKLDVAIVGVGGKPKSNEQQWLDLLNQDDFQCLDEEAAVGEITCRFFNHSGDPVNQHLAKRTIGITLEQLQKVPNRIAVAHGNYKAAALLAVLKKGYINHLVTDFSTALNILRLDKDTFVDTIYQKS” the “soluble on expression in E. coli” value was “not soluble”.
In the case of “AHHHHHHGSGVEEHKKEAPKTFKFGVITVSDKGAKGEREDKSGPLIIEELSKLGEHVYYKIVPDDKIEVLIALFEAIKSGADVVVTTGGTGITRRDITIESIKPLFDKELSFGEVFRAKSYEEVGYATVLTRATAGIIRGQERIVVVFSLPGSVNAVKTGLEIIKSEVFHILKHARE”, the “soluble on expression in E. coli” value is reported as “soluble”.
In the case of “MNKFFSADKKGGEKRRKKSKKKVRIVGMSEIGIWRQDDTMRIVHLSVWCILKRTTASLSGNEWKLSTRHANDGYIVRSPPTISGPERLQENGYVIWILL”, the “soluble on expression in E. coli” value is reported as “not soluble”.
